Data taken from publication PMC8133395 (Cell reports, 2021).

B1: BDBV-43 (recombinant IgG1) (antibody, V domains shown)
VH: QVQLVQSGAEVKKPGSSVKVSCRASGDSFSRKYGISWVRQAPGQGFEWMGTIMPIVGLTTSAQKFQGRVTITADKSTSTAHMELNSLTSEDTAIYYCARDEIIGARPHWFDSWGQGTLVTVSS
VL: EIVMTQSPAIMSVSPGKRATLSCRASQSVSSNLAWYQRKPGQAPRLLIYGSSTRATGIPARFSGSGSGTEFTLTISSLQSEDFAVYYCLQYYNWPRTFGQGTKVEIK
notes: source: FreeStyle-293-F, transiently transfected, purified (mAb Select, SEC)
B2: EBOV-293 (recombinant IgG1) (antibody, V domains shown)
VH: QVQLVQSGAEVKKPGSSVKVSCKASGGTFIDYTYNWVRQAPGQGLVWMGRVVPGLGLSSYAQQFEDRVTITAAKSTSTVYMELRGLTSEDTAMYYCARDTASFGWLPFAFWGQGTLVTVSS
VL: QTVMTQSPGTLSLSPGERATLSCGVSQSISSTYFAWYQQKVGQAPRLLIYGASNRASGIPDRFSGSASGTDFTLTISRVEPEDFAVYYCQQYGSSPTFGQGTRLEIK
notes: as for B1
B3: EBOV-237 (recombinant IgG1) (antibody, V domains shown)
VH: QVQLQESGPGLVKPSGTLSLTCAVSGGSISNGIWWSWVRQPPGKGLEWIGEIYHSGSTNYSPSLKSRVTISLDKSKNQFSLKLNSVTAADTAVYYCARAPSQFDFSDWLVPQGAMFRGHYIDYWGQGTLVTVSS
VL: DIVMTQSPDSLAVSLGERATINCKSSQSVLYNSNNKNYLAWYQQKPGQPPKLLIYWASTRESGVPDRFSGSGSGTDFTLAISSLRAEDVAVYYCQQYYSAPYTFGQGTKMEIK
notes: IgG1; source: ExpiCHO, transiently transfected, purified (HiTrap MabSelect Sure)
B4: BDBV-329 (recombinant IgG1) (antibody, V domains shown)
VH: QVQLVQSGAEVKKPGSSVKVSCKASGGTFDTYAISWVRQAPGQGLEWMGGIIPVLGIVDYAQKFQGRVTITAAKFTNIAYMELSSLRSEDAAVYYCARGLRSLSPRGQEGPTPAPGWRRAQYHYYYMDVWGTGTLVTVSS
VL: EIVMTQSPGTLSLSPGERATLSCRASQSVSSNYLAWYQQKPGQAPRLLIYGASSRATGIPDRFSGSGSGPDFTLTISRLEPEDFAVYYCQQYGSSPGTFGGGTKVEIK
notes: IgG1; also called BDB-329; source: ExpiCHO, transiently transfected, purified (HiTrap MabSelect Sure)
B5: EBOV-437 (recombinant IgG1) (antibody, V domains shown)
VH: QVQLVQSGAEVKKPGSSVKVSCKASGGTFSRDIFSWVRQAPGQGLEWMGGIIPIFGTANYAQKFQGRVTITADKSTSTVFMELSGLRSEDTAVYFCARGPPLRGERSWFGESEKYDYFYMDVWGKGTTVTVSS
VL: QIVLTQSPGTLSLSPGERATLSCRASQSVSNSYLAWYQQKPGQAPRLLIYGASSRATGIPDRFSGSGSGTDFTLSISRLEPEDFAVYYCQQYGTSPCTFGQGTKLEIK
notes: as for B3
B6: EBOV-296 (recombinant IgG1) (antibody, V domains shown)
VH: QVQLVESGPGLVKPSQTLSLICTVSGGSISSGDFYWSWIRQPPGKGLEWIGFFYYSGITYYNPSLKSRVSISRDTSTNQFSLKLRSVTAADTAVYYCARVRGGRITLGQGDMYYYSGMDVWGQGTLVTVSS
VL: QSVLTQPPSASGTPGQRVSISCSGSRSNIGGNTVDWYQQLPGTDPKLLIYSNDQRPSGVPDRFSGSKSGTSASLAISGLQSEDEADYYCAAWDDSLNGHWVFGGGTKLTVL
notes: as for B1
B7: BDBV-289 (recombinant IgG1) (antibody, V domains shown)
VH: QVQLVQSGAEVKKPGSSVKVSCKASGATFGSDTVTWVRQAPGQGLEWMGGIIPFFGEANYAQRFQGRVTITADKSTNTAYMELSSLRSEDTAVYFCARQINEMATFGEIHYYTYMDVWGQGTLVTVSS
VL: GSELTQDPAVSVALGQTVRITCQGDSLRNYYASWYQQKPRQAPVLVFYGKNNRPSGIPDRFSGSSSGNTASLTISGAQAEDEADYYCNSRDSSSNHLVFGGGTKLTVL
notes: IgG1; source: FreeStyle-293-F, transiently transfected, purified (mAb Select, SEC)
B8: EBOV-442 (recombinant IgG1) (antibody, V domains shown)
VH: EVQLVESGGGLVKPGGSLRLSCTGSGGTGFTFKYAGMSWVRQAPGKGPEWIGRIKSRIDGGTTDYAAPVKDRFIVSRDDSRNTLYLQMNSLKTEDTAVYYCATGSGKGPSASFGESYYYYDFINVWGKGTTVTVSS
VL: ESVLTQSPGTLSLSPGERATLSCRASQSISRKYLAWYQQKPGQAPRLLIYGSSSRATGIPDRFSGSGSGTDFTLTISRLEPEDFAVYYCHQYESSPWTFGQGTKVEIK
notes: as for B3

target: T1, EBOV sGP (Mayinga) (Zaire ebolavirus, Mayinga, GenBank …, UniProt P60170); experiment: ELISA; settings: both partners purified
T1 construct: source: FreeStyle-293-F, transiently transfected, purified (Strep-Tactin, SEC)
T1 sequence (P60170 33-314): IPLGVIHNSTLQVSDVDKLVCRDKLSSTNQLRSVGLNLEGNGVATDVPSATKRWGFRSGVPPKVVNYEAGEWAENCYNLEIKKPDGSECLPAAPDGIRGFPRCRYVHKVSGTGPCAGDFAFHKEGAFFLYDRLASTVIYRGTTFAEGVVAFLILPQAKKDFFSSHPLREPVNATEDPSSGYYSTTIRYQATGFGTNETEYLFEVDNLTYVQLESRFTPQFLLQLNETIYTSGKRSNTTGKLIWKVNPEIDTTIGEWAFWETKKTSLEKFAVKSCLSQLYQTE

Does B1 bind?
Result: binds

Does B2 bind?
Result: binds

Does B3 bind?
Result: binds

Does B4 bind?
Result: binds

Does B5 bind?
Result: binds

Does B6 bind?
Result: binds

Does B7 bind?
Result: binds

Does B8 bind?
Result: binds
